Test results: patent US8785391B2, “Compound and method for treatment of alzheimer's disease and familial dementia” (Alphabeta AB, priority 2010, dated 2014)

Tests used:
[1] = target: T1, recombinant Bri2(90-236) (Homo sapiens, UniProt Q9Y287); experiment: ESI-MS binding of peptides to recombinant Bri2(90-236) (substrate specificity); settings: 20 μM Bri2(90-236); for complex formation of peptide with recombinant Bri2(90-236): 50 μM peptide (peptide/protein ratio 2.5)
T1 construct: His6 (N, cleaved yes); thioredoxin (N, cleaved yes); made in house; host or cells: E. coli Origami(DE3)pLysS, pET-32c vector
T1 sequence (Q9Y287 90-236): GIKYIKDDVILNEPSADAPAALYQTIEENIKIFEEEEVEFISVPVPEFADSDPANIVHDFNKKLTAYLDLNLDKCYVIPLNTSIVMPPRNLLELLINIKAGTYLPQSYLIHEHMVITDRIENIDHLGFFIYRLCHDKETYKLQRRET
Description: Prior to electrospray ionization mass spectrometry (ESI-MS), purified Bri2(90-236) (SEQ ID NO: 2) was rebuffered into 10 mM ammonium acetate, pH 7.0, using spin columns with a 3 kDa cut-off limit (Nanosep, Pall Corp., East Hills, N.Y., USA). Protein and peptides were mixed at 22° C. directly before analysis at a final protein concentration of 20 μM and a final peptide concentration of 50 μM. Data was acquired using a QTOF Ultima API mass spectrometer (Waters, Milford, Mass., USA) equipped with a Z-spray source operated in the positive-ion mode. Samples were introduced via nano-electrospray using metal-plated borosilicate glass capillary needles (Proxeon, Denmark). The source temperature was 80° C., the capillary voltage 1.7 kV, and the cone and RF lens 1 potentials were 100 and 38 V, respectively. The mass spectrometer was operated in single-reflector mode at a resolution of 10 000 (full width half maximum definition), and the mass scale was calibrated using myoglobin. Scans were acquired at a rate of 1 scan per 2 sec between 500 and 4000 m/z. The collision gas was argon at 5.2×10^−5 mbar. Mass spectra were smoothed using the Waters MassLynx software.
All peptides, with the exception of KFFEYNGKKFFE (SEQ ID NO: 15), ABri23 (SEQ ID NO: 4) and Aβ1-40 (SEQ ID NO: 11), were purchased from Thermo Electron (Darmstadt, Germany). KFFEYNGKKFFE was purchased from Interactiva (Ulm, Germany) and Aβ1-40 and disulfide-linked ABri23 were from Bachem (Bubendorf, Switzerland).
Peptides, except for KFFEYNGKKFFE, ABri23 and Aβ1-40, were acetylated at the N-terminus and amidated at the C-terminus. The compositions of all peptides were verified by ESI-MS and amino acid analysis. Peptide YYY was dissolved to a final concentration of 10 mM in 30% acetonitrile. VVV, FFF and LLL were dissolved in 50% isopropanol to a final concentration of 10 mM. KKK, GGG and AAA were dissolved in water to a final concentration of 10 mM, while KFFEYNGKKFFE and ABri23 were dissolved in water to final concentrations of 5.6 mM and 1 mM, respectively. All peptide samples were stored at −20° C., except for Aβ1-40 which was dissolved to a final concentration of 1 mM in water directly prior to analysis.
To further investigate the substrate specificity of Bri2(90-236), homotripeptides with aromatic (YYY, FFF), hydrophobic (VVV, LLL), charged (KKK) or small uncharged (AAA, GGG) side-chains, were employed to study binding, under maintained water solubility. […] The peptide sequences are denoted in each spectrum. Symbols * and ** indicate peaks corresponding to recombinant Bri2(90-236) with one or two peptide ligands, respectively. […] Bri2(90-236) also binds the peptide KFFEYNGKKFFE (FIG. 6).

[2] = target: T2, Aβ1-42 (Homo sapiens, UniProt P05067); experiment: ThT aggregation kinetics of Aβ1-42 (Example 4); assay type: biochemical; settings: 0.1 and 1 molar equivalents to Aβ1-42; compared to the same amounts of Bri2(90-236); data not shown
T2 construct: made in house; host or cells: E. coli
Text: Aβ1-40 (SEQ ID NO: 11) and Aβ1-42 (SEQ ID NO: 12) were expressed in E. coli from synthetic genes and purified in batch format using ion exchange and size exclusion steps as described in Walsh et al., FEBS J. 2009, 276, 1266-1281, which results in highly pure monomeric peptide. Purified peptide was divided into 20-30 identical aliquots and frozen. Monomer was then isolated by gel filtration of an aliquot of purified peptide just prior to setting up each of the experiments listed below to remove traces of aggregate formed during freezing and thawing and to exchange buffer to the one used in the respective experiment. Monomer was collected in low-bind Ep-tubes ([…]) on ice, and the concentration was determined by absorbance or amino acid analysis after acid hydrolysis. The monomer was used as is or diluted to the desired concentration for the respective experiment. Bri2(90-236) (SEQ ID NO: 2) was expressed and purified as described in Example 1. Aggregation kinetics were studied by recording the Thioflavin T (ThT) fluorescence intensity as a function of time in a plate reader (FluoStar Omega from BMG Labtech, Offenberg, Germany). The fluorescence was recorded using bottom optics in half-area 96-well PEG-coated black polystyrene plates with clear bottom (Corning 3881) using 440 nm excitation filter and 480 nm emission filter. Aβ monomer was isolated by gel filtration as above in 20 mM Na-phosphate, 200 μM EDTA, 0.02% NaN3 (at pH 7.4 in the case of Aβ1-40 and at pH 8.0 for Aβ1-42) and diluted to 6 or 8 μM in the case of Aβ1-40 and 3 μM in the case of Aβ1-42 in the same buffer and supplemented with 20 μM ThT from a 2 mM stock. To each well in the 96-well plate was first added either 10 μl buffer (20 mM Tris/HCl pH 7.4) or 10 μl of Bri2(90-236) protein or control protein at ten times the desired final concentration in 20 mM Tris/HCl pH 7.4. To each well was then added 90 μl of the ice-cold Aβ monomer solution, and the plate was immediately placed in the plate reader at 37° C., with fluorescence read every 6 minutes with continuous shaking at 100 rpm between readings. […]

[3] = target: T3, Aβ1-40 (Homo sapiens, UniProt P05067); assay type: biochemical; settings: 0.1 and 1 molar equivalents to Aβ1-40; compared to the same amounts of Bri2(90-236); data not shown
T3 construct: made in house; host or cells: E. coli
Text: Aβ1-40 (SEQ ID NO: 11) and Aβ1-42 (SEQ ID NO: 12) were expressed in E. coli from synthetic genes and purified in batch format using ion exchange and size exclusion steps as described in Walsh et al., FEBS J. 2009, 276, 1266-1281, which results in highly pure monomeric peptide. Purified peptide was divided into 20-30 identical aliquots and frozen. Monomer was then isolated by gel filtration of an aliquot of purified peptide just prior to setting up each of the experiments listed below to remove traces of aggregate formed during freezing and thawing and to exchange buffer to the one used in the respective experiment. Monomer was collected in low-bind Ep-tubes ([…]) on ice, and the concentration was determined by absorbance or amino acid analysis after acid hydrolysis. The monomer was used as is or diluted to the desired concentration for the respective experiment. Bri2(90-236) (SEQ ID NO: 2) was expressed and purified as described in Example 1. Aggregation kinetics were studied by recording the Thioflavin T (ThT) fluorescence intensity as a function of time in a plate reader (FluoStar Omega from BMG Labtech, Offenberg, Germany). The fluorescence was recorded using bottom optics in half-area 96-well PEG-coated black polystyrene plates with clear bottom (Corning 3881) using 440 nm excitation filter and 480 nm emission filter. Aβ monomer was isolated by gel filtration as above in 20 mM Na-phosphate, 200 μM EDTA, 0.02% NaN3 (at pH 7.4 in the case of Aβ1-40 and at pH 8.0 for Aβ1-42) and diluted to 6 or 8 μM in the case of Aβ1-40 and 3 μM in the case of Aβ1-42 in the same buffer and supplemented with 20 μM ThT from a 2 mM stock. To each well in the 96-well plate was first added either 10 μl buffer (20 mM Tris/HCl pH 7.4) or 10 μl of Bri2(90-236) protein or control protein at ten times the desired final concentration in 20 mM Tris/HCl pH 7.4. To each well was then added 90 μl of the ice-cold Aβ monomer solution, and the plate was immediately placed in the plate reader at 37° C., with fluorescence read every 6 minutes with continuous shaking at 100 rpm between readings. Aβ1-40 was studied alone or with Bri2(90-236) at a concentration ranging from 60 nM to 6 μM. Aβ1-42 was studied alone or with Bri2(90-236) at a concentration ranging from 20 nM to 6 μM.

T3 sequence (P05067 672-711): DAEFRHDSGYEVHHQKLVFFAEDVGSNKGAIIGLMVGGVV
T2 sequence (P05067 672-713): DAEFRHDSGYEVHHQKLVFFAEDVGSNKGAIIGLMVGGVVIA

Substance	complex formation of peptide with recombinant Bri2(90-236) [1]	other results
KKK: homotripeptide with charged side-chains (Ac-Lys-Lys-Lys-NH2)	No interactions were observed	
VVV: homotripeptide with hydrophobic side-chains (Ac-Val-Val-Val-NH2)	No interactions were observed	
YYY: homotripeptide with aromatic side-chains (Ac-Tyr-Tyr-Tyr-NH2)	found to form complexes	number of peptide molecules per Bri2(90-236) in complexes ([1]; 50 μM peptide): one or two
GGG: homotripeptide with small uncharged side-chains (Ac-Gly-Gly-Gly-NH2)	No interactions were observed	
FFF: homotripeptide with aromatic side-chains (Ac-Phe-Phe-Phe-NH2)	No interactions were observed	
AAA: homotripeptide with small uncharged side-chains	No interactions were observed	
KFFEYNGKKFFE	found to form complexes	
cystatin [reference compound]		effects of control protein on Aβ1-42 aggregation (ThT assay) [2]: small; effects of control protein on Aβ1-40 aggregation (ThT assay) [3]: small
LLL: homotripeptide with hydrophobic side-chains (Ac-Leu-Leu-Leu-NH2)	No interactions were observed	
